Reference: IntAct's records for PubMed 11777938

B1: Anaphase-promoting complex subunit 8 (Schizosaccharomyces pombe (strain ATCC 38366 / 972)), O94556 (parent)
chain: MTVSLNTMMGVDGLEDQEQLREIRNCLLKCISECSERGLVYAVRWAAEMLNGMNPIEMEHIPFSSTPTGEFDLDPDMANEKLLEVEEKNIYLLAKSYFDCKEFERAAYTLQNCKSSKSIFLRLYSKYLAGEKKSEEENETLLNTNLTLSSTNREFYYISEVLESLHYQGNKDPYLLYLSGVVYRKRKQDSKAIDFLKSCVLKAPFFWSAWLELSLSIDSLETLTTVVSQLPSTHIMTKIFYVYASHELHQVNSSAYEKLAEAEIIFPNSRYLKTQRALLTYDSRDFDEAESLFENILTNDPYRLDDMDTYSNVLFVLENKSKLGFLAQVASSIDKFRPETCSIIGNYYSLLSEHEKAVTYFKRALQLNRNYLSAWTLMGHEYVELKNTHAAIESYRLAVDVNRKDYRAWYGLGQTYEVLDMHFYALYYFQRATALRPYDQRMWQALGNCYEKIDRPQEAIKSYKRALLGSQTNSSILVRLGNLYEELQDLNSAASMYKQCIKTEETEISPETIKARIWLARWELGKKNYREAELYLSEVLNGDLELEEAKALLRELRSRMEHSYD
partner: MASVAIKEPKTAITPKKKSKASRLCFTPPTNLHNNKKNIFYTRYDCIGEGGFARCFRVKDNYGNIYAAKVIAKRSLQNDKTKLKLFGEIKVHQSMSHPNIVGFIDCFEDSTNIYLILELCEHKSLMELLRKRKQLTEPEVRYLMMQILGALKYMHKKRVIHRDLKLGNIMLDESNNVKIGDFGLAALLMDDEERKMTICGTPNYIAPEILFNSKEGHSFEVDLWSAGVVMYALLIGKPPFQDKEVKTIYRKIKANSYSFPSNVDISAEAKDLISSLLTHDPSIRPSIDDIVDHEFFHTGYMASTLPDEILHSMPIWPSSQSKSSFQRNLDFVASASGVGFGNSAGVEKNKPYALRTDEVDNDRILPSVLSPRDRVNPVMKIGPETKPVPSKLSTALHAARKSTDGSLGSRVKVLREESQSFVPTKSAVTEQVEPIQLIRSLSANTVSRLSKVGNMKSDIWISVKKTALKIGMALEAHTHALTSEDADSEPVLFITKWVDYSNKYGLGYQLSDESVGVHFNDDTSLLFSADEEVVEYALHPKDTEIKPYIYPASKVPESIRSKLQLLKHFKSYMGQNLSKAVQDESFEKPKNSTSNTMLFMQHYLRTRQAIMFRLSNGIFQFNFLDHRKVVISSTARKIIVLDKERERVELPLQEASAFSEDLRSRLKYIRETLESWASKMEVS

Variants of: B1
Details: with plo1_schpo plo1, P50528

effect of a mutation on the interaction | Variant
decreasing interaction | MTVSLNTMMGVDGLEDQEQLREIRNCLLKCISECSERGLVYAVRWAAEMLNGMNPIEMEHIPFSSTPTGEFDLDPDMANEKLLEVEEKNIYLLAKSYFDCKEFERAAYTLQNCKSSKSIFLRLYSKYLAGEKKSEEENETLLNTNLTLSSTNREFYYISEVLESLHYQGNKDPYLLYLSGVVYRKRKQDSKAIDFLKSCVLKAPFFWSAWLELSLSIDSLETLTTVVSQLPSTHIMTKIFYVYASHELHQVNSSAYEKLAEAEIIFPNSRYLKTQRALLTYDSRDFDEAESLFENILTNDPYRLDDMDTYSNVLFVLENKSKLGFLAQVASSIDKFRPETCSIIGNYYNLLSEHEKAVTYFKRALQLNRNYLSAWTLMGHEYVELKNTHAAIESYRLAVDVNRKDYRAWYGLGQTYEVLDMHFYALYYFQRATALRPYDQRMWQALGNCYEKIDRPQEAIKSYKRALLGSQTNSSILVRLGNLYEELQDLNSAASMYKQCIKTEETEISPETIKARIWLARWELGKKNYREAELYLSEVLNGDLELEEAKALLRELRSRMEHSYD [S349N]
